Changes are numbered by the printed parent chain. Names and notes keep the numbering of the source.

The data set concerns the molecule itself. The experiment in a line: crystal structure.

B1: C-terminal bZIP domain of human C/EBPβ (residues 269–344), wild type (domain or fragment)
chain: HMKHSDEYKIRRERNNIAVRKSRDKAKMRNLETQHKVLELTAENERLQKKVEQLSRELSTLRNLFKQLPEPLLASSGH
Consider B1, for which the binding result is reported as “binds”.

B2: C-terminal bZIP domain of human C/EBPβ (residues 269–344), V285A variant (domain or fragment)
chain: B1 chain with V19A
Consider B2, for which the binding result is “binds”.

The values above are taken from PMC6393304 (Nucleic Acids Research, 2018).
